For two molecules, Kd results are on record in article doi:10.1101/2025.08.18.670856.

For experiment [1], the target named is FetA-HIS (wild type, from the plasmid AHSG-bio-His) (human) (UniProt P02765). As to the kind of experiment: SPR. In general terms: SPR reads the build-up and loss of mass on a sensor chip optically.
Experiment [2] concerns the target HIF-1α wild type used in SPR: C-terminal domain (CTD) of hypoxia-stable HIF-1α (579-826 residues) (human) (UniProt Q16665). The experiment can be described thus: SPR.

Consider “HIF-1α 743D>L point mutant (from UniProt Q16665 1-826) (natural protein)”, for which the Kd – broadly, the concentration at which binding is half-saturated – in experiment [1] was determined as 90 nM.

B1: FetA-HIS (wild type, from the plasmid AHSG-bio-His) (natural protein)
chain: APHGPGLIYRQPNCDDPETEEAALVAIDYINQNLPWGYKHTLNQIDEVKVWPQQPSGELFEIEIDTLETTCHVLDPTPVARCSVRQLKEHAVEGDCDFQLLKLDGKFSVVYAKCDSSPDSAEDVRKVCQDCPLLAPLNDTRVVHAAKAALAAFNAQNNGSNFQLEEISRAQLVPLPPSTYVEFTVSGTDCVAKEATEAAKCNLLAEKQYGFCKATLSEKLGGAEVAVTCMVFQTQPVSSQPQPEGANEAVPTPVVDPDAPPSPPLGAPGLPPAGSPPDSHVLLAAPPGHQLHRAHYDLRHTFMGVVSLGSPSGEVSHPRKTRTVVQPSVGAAAGPVVPPCPGRIRHFKV
Take B1: the Kd in experiment [2] was found to be 23.4 nM.
